In article PMC9482650, “Quantitative fragmentomics allow affinity mapping of interactomes” (Nature Communications, 2022):
Numbering of substitutions follows the chain as printed. Values belong to the binder of their own block, whether it stands above or below them.

Legend:
Experiment in all cases: holdup assay
Parameters in all cases: key: below the threshold = too weak to quantify, mostly under pKd 3.1 to 4
Settings in all cases: plain residues with an end cap or a label only (N-terminal biotin on a linker: ado-ado)
APBA1_2, Q02410 = molecular target: T1, APBA1_2, Q02410
T1 sequence (Q02410 742-832, limits assumed, looked up): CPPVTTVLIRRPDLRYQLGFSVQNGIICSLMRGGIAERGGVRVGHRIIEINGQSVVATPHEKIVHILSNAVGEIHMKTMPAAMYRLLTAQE

APBA2_1, Q99767 = molecular target: T2, APBA2_1, Q99767
T2 sequence (Q99767 563-664, limits assumed, looked up): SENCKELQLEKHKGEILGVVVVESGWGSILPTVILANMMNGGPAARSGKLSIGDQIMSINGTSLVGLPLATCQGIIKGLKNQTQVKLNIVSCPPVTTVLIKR

APBA2_2, Q99767 = molecular target: T3, APBA2_2, Q99767
T3 sequence (Q99767 654-744, limits assumed, looked up): T1 sequence (Q02410 742-832, limits assumed, looked up) with R10K, R15K, P59A, H65Q, I66A, A70S, Y84F, A89G

DLG3_2, Q92796 = molecular target: T4, DLG3_2, Q92796
T4 sequence (Q92796 221-321, limits assumed, looked up): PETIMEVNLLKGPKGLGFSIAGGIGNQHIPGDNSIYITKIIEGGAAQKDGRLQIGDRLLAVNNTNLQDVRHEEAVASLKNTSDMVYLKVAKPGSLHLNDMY

DLG4_1, P78352 = molecular target: DLG4_1, P78352
FRMPD1, Q5SYB0 = molecular target: T5, FRMPD1, Q5SYB0
T5 sequence (Q5SYB0 52-145, limits assumed, looked up): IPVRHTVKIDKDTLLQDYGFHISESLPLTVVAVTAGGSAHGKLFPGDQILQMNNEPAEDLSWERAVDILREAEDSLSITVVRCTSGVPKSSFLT

FRMPD3, Q5JV73 = molecular target: FRMPD3, Q5JV73
GRIP1_5, Q9Y3R0 = molecular target: T6, GRIP1_5, Q9Y3R0
T6 sequence (Q9Y3R0 568-668, limits assumed, looked up): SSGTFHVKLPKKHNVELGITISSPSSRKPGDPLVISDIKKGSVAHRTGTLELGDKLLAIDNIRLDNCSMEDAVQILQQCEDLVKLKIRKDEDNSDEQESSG

GRIP2_5, Q9C0E4 = molecular target: GRIP2_5, Q9C0E4
Inadl_6, Q8NI35 = molecular target: Inadl_6, Q8NI35
LNX1_2, Q8TBB1 = molecular target: LNX1_2, Q8TBB1
LNX2_2, Q8N448 = molecular target: T7, LNX2_2, Q8N448
T7 sequence (Q8N448 334-432, limits assumed, looked up): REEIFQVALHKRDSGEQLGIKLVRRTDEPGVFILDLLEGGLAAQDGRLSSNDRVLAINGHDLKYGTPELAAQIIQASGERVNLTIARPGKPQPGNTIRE

LRRC7, Q96NW7 = molecular target: T8, LRRC7, Q96NW7
T8 sequence (Q96NW7 1440-1537, limits assumed, looked up): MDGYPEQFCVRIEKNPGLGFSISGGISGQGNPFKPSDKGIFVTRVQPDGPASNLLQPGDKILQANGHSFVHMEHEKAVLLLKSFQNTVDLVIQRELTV

MAGI2_4, Q86UL8 = molecular target: MAGI2_4, Q86UL8
MAGI2_5, Q86UL8 = molecular target: MAGI2_5, Q86UL8
MAST2, Q6P0Q8 = molecular target: MAST2, Q6P0Q8
MPP2, Q14168 = molecular target: T9, MPP2, Q14168
T9 sequence (Q14168 180-250, limits assumed, looked up): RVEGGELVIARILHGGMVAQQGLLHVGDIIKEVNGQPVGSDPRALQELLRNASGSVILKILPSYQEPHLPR

NHERF3_4, Q5T2W1 = molecular target: T10, NHERF3_4, Q5T2W1
T10 sequence (Q5T2W1 373-468, limits assumed, looked up): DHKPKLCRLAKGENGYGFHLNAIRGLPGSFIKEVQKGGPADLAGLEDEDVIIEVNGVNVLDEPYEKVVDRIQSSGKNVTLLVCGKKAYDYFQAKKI

NOS1, P29475 = molecular target: NOS1, P29475
PDLIM1, O00151 = molecular target: PDLIM1, O00151
RADIL, Q96JH8 = molecular target: T11, RADIL, Q96JH8
T11 sequence (Q96JH8 971-1071, limits assumed, looked up): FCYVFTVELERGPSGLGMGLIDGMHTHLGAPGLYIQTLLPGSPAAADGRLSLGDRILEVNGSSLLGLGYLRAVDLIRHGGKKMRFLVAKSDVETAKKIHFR

SCRIB_3, Q14160 = molecular target: SCRIB_3, Q14160
SIPA1L2, Q9P2F8 = molecular target: T12, SIPA1L2, Q9P2F8
T12 sequence (Q9P2F8 945-1036, limits assumed, looked up): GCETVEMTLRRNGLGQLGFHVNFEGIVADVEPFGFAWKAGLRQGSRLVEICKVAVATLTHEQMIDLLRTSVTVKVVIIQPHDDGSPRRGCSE

TIAM2, Q8IVF5 = molecular target: T13, TIAM2, Q8IVF5
T13 sequence (Q8IVF5 885-986, limits assumed, looked up): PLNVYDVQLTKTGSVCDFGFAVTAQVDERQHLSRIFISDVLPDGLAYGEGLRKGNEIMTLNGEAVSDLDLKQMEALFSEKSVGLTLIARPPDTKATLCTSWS

TJP1_2, Q07157 = molecular target: TJP1_2, Q07157
Chain of TJP1_2, Q07157 (Q07157 181-274): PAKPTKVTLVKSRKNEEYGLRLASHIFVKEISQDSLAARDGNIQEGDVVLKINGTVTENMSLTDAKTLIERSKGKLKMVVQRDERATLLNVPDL

Chain of DLG4_1, P78352 (P78352 62-152): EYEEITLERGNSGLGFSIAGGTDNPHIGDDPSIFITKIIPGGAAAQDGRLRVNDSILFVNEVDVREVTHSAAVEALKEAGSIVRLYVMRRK
Chain of MAGI2_5, Q86UL8 (Q86UL8 915-1017): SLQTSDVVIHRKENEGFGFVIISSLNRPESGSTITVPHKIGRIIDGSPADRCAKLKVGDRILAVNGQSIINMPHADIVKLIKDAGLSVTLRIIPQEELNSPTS
Chain of MAST2, Q6P0Q8 (Q6P0Q8 1099-1202): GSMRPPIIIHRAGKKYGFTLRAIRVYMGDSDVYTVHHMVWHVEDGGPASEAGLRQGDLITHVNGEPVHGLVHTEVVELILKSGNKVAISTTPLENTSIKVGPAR
Chain of GRIP2_5, Q9C0E4 (Q9C0E4 544-642): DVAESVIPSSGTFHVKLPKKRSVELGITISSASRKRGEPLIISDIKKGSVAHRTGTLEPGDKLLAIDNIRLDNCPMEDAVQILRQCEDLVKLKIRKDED
Chain of PDLIM1, O00151 (O00151 1-87): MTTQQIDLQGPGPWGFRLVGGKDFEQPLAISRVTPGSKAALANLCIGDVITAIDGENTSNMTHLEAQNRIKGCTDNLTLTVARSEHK
Chain of MAGI2_4, Q86UL8 (Q86UL8 772-865): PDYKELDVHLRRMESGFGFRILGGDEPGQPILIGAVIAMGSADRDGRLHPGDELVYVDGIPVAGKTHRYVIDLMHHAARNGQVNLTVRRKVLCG
Chain of NOS1, P29475 (P29475 9-101): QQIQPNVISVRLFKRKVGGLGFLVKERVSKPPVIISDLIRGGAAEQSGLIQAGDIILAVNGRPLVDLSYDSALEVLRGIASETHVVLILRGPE
Chain of FRMPD3, Q5JV73 (Q5JV73 12-100): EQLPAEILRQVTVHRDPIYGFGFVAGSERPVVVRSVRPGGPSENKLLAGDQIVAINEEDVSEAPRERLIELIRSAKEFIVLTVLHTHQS
Chain of SCRIB_3, Q14160 (Q14160 999-1103): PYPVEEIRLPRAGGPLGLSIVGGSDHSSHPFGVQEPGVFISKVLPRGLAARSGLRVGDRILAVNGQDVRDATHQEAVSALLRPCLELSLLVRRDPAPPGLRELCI
Chain of LNX1_2, Q8TBB1 (Q8TBB1 371-470): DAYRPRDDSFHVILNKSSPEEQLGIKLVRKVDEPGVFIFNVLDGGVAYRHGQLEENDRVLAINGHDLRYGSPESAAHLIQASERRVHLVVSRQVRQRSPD
Chain of Inadl_6, Q8NI35 (Q8NI35 1058-1167): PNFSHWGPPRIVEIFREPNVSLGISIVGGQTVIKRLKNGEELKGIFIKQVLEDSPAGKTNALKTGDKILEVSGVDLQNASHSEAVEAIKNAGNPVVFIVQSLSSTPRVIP

- pKd (APBA1_2, Q02410): 4.23
- pKd (APBA2_1, Q99767): below the threshold
- pKd (APBA2_2, Q99767): below the threshold
- pKd (DLG3_2, Q92796): 3.72
- pKd (DLG4_1, P78352): 3.68
- pKd (FRMPD1, Q5SYB0): below the threshold
- pKd (FRMPD3, Q5JV73): below the threshold
- pKd (GRIP1_5, Q9Y3R0): below the threshold
- pKd (GRIP2_5, Q9C0E4): below the threshold
- pKd (Inadl_6, Q8NI35): 4.14
- pKd (LNX1_2, Q8TBB1): below the threshold
- pKd (LNX2_2, Q8N448): below the threshold
- pKd (LRRC7, Q96NW7): 3.74
- pKd (MAGI2_4, Q86UL8): below the threshold
- pKd (MAGI2_5, Q86UL8): below the threshold
- pKd (MAST2, Q6P0Q8): 5.61
- pKd (MPP2, Q14168): below the threshold
- pKd (NHERF3_4, Q5T2W1): 3.47
- pKd (NOS1, P29475): below the threshold
- pKd (PDLIM1, O00151): 3.77
- pKd (RADIL, Q96JH8): below the threshold
- pKd (SCRIB_3, Q14160): 4.94
- pKd (SIPA1L2, Q9P2F8): below the threshold
- pKd (TIAM2, Q8IVF5): below the threshold
- pKd (TJP1_2, Q07157): below the threshold
B1: PLXNB1, O43157 (peptide)
chain: AAVENKVTDL

- pKd (APBA1_2, Q02410): below the threshold
- pKd (APBA2_1, Q99767): below the threshold
- pKd (APBA2_2, Q99767): below the threshold
- pKd (DLG3_2, Q92796): 4.11
- pKd (DLG4_1, P78352): below the threshold
- pKd (FRMPD1, Q5SYB0): below the threshold
- pKd (FRMPD3, Q5JV73): below the threshold
- pKd (GRIP1_5, Q9Y3R0): below the threshold
- pKd (GRIP2_5, Q9C0E4): below the threshold
- pKd (Inadl_6, Q8NI35): below the threshold
- pKd (LNX1_2, Q8TBB1): below the threshold
- pKd (LNX2_2, Q8N448): 3.49
- pKd (LRRC7, Q96NW7): below the threshold
- pKd (MAGI2_4, Q86UL8): 3.62
- pKd (MAGI2_5, Q86UL8): 3.8
- pKd (MAST2, Q6P0Q8): 5.08
- pKd (MPP2, Q14168): below the threshold
- pKd (NHERF3_4, Q5T2W1): below the threshold
- pKd (NOS1, P29475): below the threshold
- pKd (PDLIM1, O00151): below the threshold
- pKd (RADIL, Q96JH8): below the threshold
- pKd (SCRIB_3, Q14160): below the threshold
- pKd (SIPA1L2, Q9P2F8): below the threshold
- pKd (TIAM2, Q8IVF5): 4.13
- pKd (TJP1_2, Q07157): below the threshold
B2: PRKACA, P17612 (peptide)
chain: EKCGKEFSEF

- pKd (APBA1_2, Q02410): 3.64
- pKd (APBA2_1, Q99767): below the threshold
- pKd (APBA2_2, Q99767): below the threshold
- pKd (DLG3_2, Q92796): 4.77
- pKd (DLG4_1, P78352): 4.85
- pKd (FRMPD1, Q5SYB0): below the threshold
- pKd (FRMPD3, Q5JV73): below the threshold
- pKd (GRIP1_5, Q9Y3R0): below the threshold
- pKd (GRIP2_5, Q9C0E4): below the threshold
- pKd (Inadl_6, Q8NI35): 3.56
- pKd (LNX1_2, Q8TBB1): 3.56
- pKd (LNX2_2, Q8N448): 4.92
- pKd (LRRC7, Q96NW7): below the threshold
- pKd (MAGI2_4, Q86UL8): 4.48
- pKd (MAGI2_5, Q86UL8): 3.55
- pKd (MAST2, Q6P0Q8): 4.91
- pKd (MPP2, Q14168): below the threshold
- pKd (NHERF3_4, Q5T2W1): below the threshold
- pKd (NOS1, P29475): 3.81
- pKd (PDLIM1, O00151): below the threshold
- pKd (RADIL, Q96JH8): 3.97
- pKd (SCRIB_3, Q14160): 3.94
- pKd (SIPA1L2, Q9P2F8): below the threshold
- pKd (TIAM2, Q8IVF5): below the threshold
- pKd (TJP1_2, Q07157): below the threshold
B3: FZD4, Q9ULV1 (peptide)
chain: KPGKGSETVV
